Consider 5 molecules from patent US20210139548A1 (published 2021).

To fix the notation:
B1: Compound 185 (peptide)
peptide: Isovaleryl-APEK([AEEA-AEEA-γGlu-C18 diacid])PEEEASPEELQRYYVELRHYYNWLTRQRY-NH2
SMILES: CC(C)CC(=O)N[C@@H](C)C(=O)N1CCC[C@H]1C(=O)N[C@@H](CCC(=O)O)C(=O)N[C@@H](CCCCNC(=O)COCCOCCNC(=O)COCCOCCNC(=O)CC[C@H](NC(=O)CCCCCCCCCCCCCCCCC(=O)O)C(=O)O)C(=O)N1CCC[C@H]1C(=O)N[C@@H](CCC(=O)O)C(=O)N[C@@H](CCC(=O)O)C(=O)N[C@@H](CCC(=O)O)C(=O)N[C@@H](C)C(=O)N[C@@H](CO)C(=O)N1CCC[C@H]1C(=O)N[C@@H](CCC(=O)O)C(=O)N[C@@H](CCC(=O)O)C(=O)N[C@@H](CC(C)C)C(=O)N[C@@H](CCC(N)=O)C(=O)N[C@@H](CCCNC(=N)N)C(=O)N[C@@H](Cc1ccc(O)cc1)C(=O)N[C@@H](Cc1ccc(O)cc1)C(=O)N[C@H](C(=O)N[C@@H](CCC(=O)O)C(=O)N[C@@H](CC(C)C)C(=O)N[C@@H](CCCNC(=N)N)C(=O)N[C@@H](Cc1c[nH]cn1)C(=O)N[C@@H](Cc1ccc(O)cc1)C(=O)N[C@@H](Cc1ccc(O)cc1)C(=O)N[C@@H](CC(N)=O)C(=O)N[C@@H](Cc1c[nH]c2ccccc12)C(=O)N[C@@H](CC(C)C)C(=O)N[C@H](C(=O)N[C@@H](CCCNC(=N)N)C(=O)N[C@@H](CCC(N)=O)C(=O)N[C@@H](CCCNC(=N)N)C(=O)N[C@@H](Cc1ccc(O)cc1)C(N)=O)[C@@H](C)O)C(C)C
B2: Compound 192 (peptide)
peptide: Isovaleryl-APEK([AEEA-AEEA-γGlu-C18 diacid])PEEDAAPAELQRYYVSLRHYYNWLTRQRY-NH2
SMILES: CC(C)CC(=O)N[C@@H](C)C(=O)N1CCC[C@H]1C(=O)N[C@@H](CCC(=O)O)C(=O)N[C@@H](CCCCNC(=O)COCCOCCNC(=O)COCCOCCNC(=O)CC[C@H](NC(=O)CCCCCCCCCCCCCCCCC(=O)O)C(=O)O)C(=O)N1CCC[C@H]1C(=O)N[C@@H](CCC(=O)O)C(=O)N[C@@H](CCC(=O)O)C(=O)N[C@@H](CC(=O)O)C(=O)N[C@@H](C)C(=O)N[C@@H](C)C(=O)N1CCC[C@H]1C(=O)N[C@@H](C)C(=O)N[C@@H](CCC(=O)O)C(=O)N[C@@H](CC(C)C)C(=O)N[C@@H](CCC(N)=O)C(=O)N[C@@H](CCCNC(=N)N)C(=O)N[C@@H](Cc1ccc(O)cc1)C(=O)N[C@@H](Cc1ccc(O)cc1)C(=O)N[C@H](C(=O)N[C@@H](CO)C(=O)N[C@@H](CC(C)C)C(=O)N[C@@H](CCCNC(=N)N)C(=O)N[C@@H](Cc1c[nH]cn1)C(=O)N[C@@H](Cc1ccc(O)cc1)C(=O)N[C@@H](Cc1ccc(O)cc1)C(=O)N[C@@H](CC(N)=O)C(=O)N[C@@H](Cc1c[nH]c2ccccc12)C(=O)N[C@@H](CC(C)C)C(=O)N[C@H](C(=O)N[C@@H](CCCNC(=N)N)C(=O)N[C@@H](CCC(N)=O)C(=O)N[C@@H](CCCNC(=N)N)C(=O)N[C@@H](Cc1ccc(O)cc1)C(N)=O)[C@@H](C)O)C(C)C
B3: Compound 191 (peptide)
peptide: Isovaleryl-APEK([AEEA-AEEA-γGlu-C18 diacid])PEEDASPEELQRYYISLRHYYNWLTRQRY-NH2
SMILES: CC[C@H](C)[C@H](NC(=O)[C@H](Cc1ccc(O)cc1)NC(=O)[C@H](Cc1ccc(O)cc1)NC(=O)[C@H](CCCNC(=N)N)NC(=O)[C@H](CCC(N)=O)NC(=O)[C@H](CC(C)C)NC(=O)[C@H](CCC(=O)O)NC(=O)[C@H](CCC(=O)O)NC(=O)[C@@H]1CCCN1C(=O)[C@H](CO)NC(=O)[C@H](C)NC(=O)[C@H](CC(=O)O)NC(=O)[C@H](CCC(=O)O)NC(=O)[C@H](CCC(=O)O)NC(=O)[C@@H]1CCCN1C(=O)[C@H](CCCCNC(=O)COCCOCCNC(=O)COCCOCCNC(=O)CC[C@H](NC(=O)CCCCCCCCCCCCCCCCC(=O)O)C(=O)O)NC(=O)[C@H](CCC(=O)O)NC(=O)[C@@H]1CCCN1C(=O)[C@H](C)NC(=O)CC(C)C)C(=O)N[C@@H](CO)C(=O)N[C@@H](CC(C)C)C(=O)N[C@@H](CCCNC(=N)N)C(=O)N[C@@H](Cc1c[nH]cn1)C(=O)N[C@@H](Cc1ccc(O)cc1)C(=O)N[C@@H](Cc1ccc(O)cc1)C(=O)N[C@@H](CC(N)=O)C(=O)N[C@@H](Cc1c[nH]c2ccccc12)C(=O)N[C@@H](CC(C)C)C(=O)N[C@H](C(=O)N[C@@H](CCCNC(=N)N)C(=O)N[C@@H](CCC(N)=O)C(=O)N[C@@H](CCCNC(=N)N)C(=O)N[C@@H](Cc1ccc(O)cc1)C(N)=O)[C@@H](C)O
B4: Compound 189 (peptide)
peptide: Isovaleryl-APEK([AEEA-AEEA-γGlu-C18 diacid])PEEDASEAELQRYYVSLRHYYNWLTRQRY-NH2
SMILES: CC(C)CC(=O)N[C@@H](C)C(=O)N1CCC[C@H]1C(=O)N[C@@H](CCC(=O)O)C(=O)N[C@@H](CCCCNC(=O)COCCOCCNC(=O)COCCOCCNC(=O)CC[C@H](NC(=O)CCCCCCCCCCCCCCCCC(=O)O)C(=O)O)C(=O)N1CCC[C@H]1C(=O)N[C@@H](CCC(=O)O)C(=O)N[C@@H](CCC(=O)O)C(=O)N[C@@H](CC(=O)O)C(=O)N[C@@H](C)C(=O)N[C@@H](CO)C(=O)N[C@@H](CCC(=O)O)C(=O)N[C@@H](C)C(=O)N[C@@H](CCC(=O)O)C(=O)N[C@@H](CC(C)C)C(=O)N[C@@H](CCC(N)=O)C(=O)N[C@@H](CCCNC(=N)N)C(=O)N[C@@H](Cc1ccc(O)cc1)C(=O)N[C@@H](Cc1ccc(O)cc1)C(=O)N[C@H](C(=O)N[C@@H](CO)C(=O)N[C@@H](CC(C)C)C(=O)N[C@@H](CCCNC(=N)N)C(=O)N[C@@H](Cc1c[nH]cn1)C(=O)N[C@@H](Cc1ccc(O)cc1)C(=O)N[C@@H](Cc1ccc(O)cc1)C(=O)N[C@@H](CC(N)=O)C(=O)N[C@@H](Cc1c[nH]c2ccccc12)C(=O)N[C@@H](CC(C)C)C(=O)N[C@H](C(=O)N[C@@H](CCCNC(=N)N)C(=O)N[C@@H](CCC(N)=O)C(=O)N[C@@H](CCCNC(=N)N)C(=O)N[C@@H](Cc1ccc(O)cc1)C(N)=O)[C@@H](C)O)C(C)C
B5: Compound 187 (peptide)
peptide: Isovaleryl-APEK([AEEA-AEEA-γGlu-C18 diacid])PEEDASPEELQRYYVSLRHQYNWLTRQRY-NH2
SMILES: CC(C)CC(=O)N[C@@H](C)C(=O)N1CCC[C@H]1C(=O)N[C@@H](CCC(=O)O)C(=O)N[C@@H](CCCCNC(=O)COCCOCCNC(=O)COCCOCCNC(=O)CC[C@H](NC(=O)CCCCCCCCCCCCCCCCC(=O)O)C(=O)O)C(=O)N1CCC[C@H]1C(=O)N[C@@H](CCC(=O)O)C(=O)N[C@@H](CCC(=O)O)C(=O)N[C@@H](CC(=O)O)C(=O)N[C@@H](C)C(=O)N[C@@H](CO)C(=O)N1CCC[C@H]1C(=O)N[C@@H](CCC(=O)O)C(=O)N[C@@H](CCC(=O)O)C(=O)N[C@@H](CC(C)C)C(=O)N[C@@H](CCC(N)=O)C(=O)N[C@@H](CCCNC(=N)N)C(=O)N[C@@H](Cc1ccc(O)cc1)C(=O)N[C@@H](Cc1ccc(O)cc1)C(=O)N[C@H](C(=O)N[C@@H](CO)C(=O)N[C@@H](CC(C)C)C(=O)N[C@@H](CCCNC(=N)N)C(=O)N[C@@H](Cc1c[nH]cn1)C(=O)N[C@@H](CCC(N)=O)C(=O)N[C@@H](Cc1ccc(O)cc1)C(=O)N[C@@H](CC(N)=O)C(=O)N[C@@H](Cc1c[nH]c2ccccc12)C(=O)N[C@@H](CC(C)C)C(=O)N[C@H](C(=O)N[C@@H](CCCNC(=N)N)C(=O)N[C@@H](CCC(N)=O)C(=O)N[C@@H](CCCNC(=N)N)C(=O)N[C@@H](Cc1ccc(O)cc1)C(N)=O)[C@@H](C)O)C(C)C

*1 amine or outer side, *2 acyl side, *3 side chain or, on linkers, in order; H or OH if unused. Side-chain parts run from the residue outwards. The star is where a group is joined. C18 diacid = O=C(O)CCCCCCCCCCCCCCCCC(=O)*; γGlu = O=C(O)[C@H](CCC(=O)[*:2])N[*:1]; Isovaleryl = CC(C)CC(=O)*; AEEA = NCCOCCOCC(=O)O

The experiment deals with T1, human neuropeptide Y2 receptor (human, UniProt P49146 1-381).
T1 construct: whole, on cells; also called hNPY2 receptor; hNPY2-R
T1 sequence (looked up): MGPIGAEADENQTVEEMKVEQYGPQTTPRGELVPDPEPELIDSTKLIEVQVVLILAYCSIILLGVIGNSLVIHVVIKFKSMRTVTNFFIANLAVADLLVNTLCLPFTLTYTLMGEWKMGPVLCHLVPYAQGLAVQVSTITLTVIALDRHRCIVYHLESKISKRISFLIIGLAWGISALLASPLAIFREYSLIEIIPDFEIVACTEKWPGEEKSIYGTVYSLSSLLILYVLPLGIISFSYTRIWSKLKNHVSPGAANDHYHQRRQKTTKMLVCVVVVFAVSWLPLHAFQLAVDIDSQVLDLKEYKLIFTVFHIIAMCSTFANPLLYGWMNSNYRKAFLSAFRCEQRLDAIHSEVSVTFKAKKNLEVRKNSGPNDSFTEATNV
Put plainly: radioligand competition (125I-PYY(1-36)), hNPY2R membranes. A digest of the protocol:
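Commercial human Y2 receptor membranes (0.5 μg protein/well) were incubated with peptide for 2 h at room temperature in 50 mM HEPES, 5 mM MgCl₂, 1 mM CaCl₂, pH 7.4, with 0.2% ovalbumin. Bound radioligand was separated on PEI-soaked GF/C filters and counted by scintillation, and IC₅₀ came from nonlinear sigmoidal regression.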
(In a radioligand displacement assay an active substance lowers the binding of a labelled ligand.)
Turning to B1, the Ki – broadly, the equilibrium dissociation constant of an inhibitor or competing ligand from its target – was found to be 3.58 nM. Molecule B2 showed a Ki of 1.65 nM.

In turn, B3 showed a Ki of 1.7 nM.

Molecule B4 had a Ki of 2.08 nM. On to B5, for which affinity was put at a Ki of 2.76 nM.
